A word on the EC50: it is the concentration giving half of the maximal effect.

Consider three molecules from patent publication CN115536746A (NANJING SANHOME PHARMACEUTICAL CO LTD, dated 2022).

The experiment addresses T1, cCRTAM-His (猴源CRTAM蛋白胞外区 + His标签) (猴源 (食蟹猴, cynomolgus monkey)).
T1 construct: also called cCRTAM-His蛋白; 食蟹猴CRTAM
T1 chain: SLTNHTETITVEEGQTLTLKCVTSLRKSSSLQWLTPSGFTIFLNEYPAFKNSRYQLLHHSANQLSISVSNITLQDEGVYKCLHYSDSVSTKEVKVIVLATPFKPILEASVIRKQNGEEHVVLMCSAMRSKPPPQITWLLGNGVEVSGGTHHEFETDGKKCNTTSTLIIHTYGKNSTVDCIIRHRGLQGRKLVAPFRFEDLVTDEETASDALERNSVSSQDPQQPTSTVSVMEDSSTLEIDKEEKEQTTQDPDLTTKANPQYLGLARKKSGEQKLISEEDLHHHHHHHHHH
Put plainly: ELISA, cCRTAM-His coated at 2 μg/mL. On the technique in general: An ELISA detects its analyte on a solid surface through an enzyme-linked reagent.

B1: HuC124-42 (antibody, V domains shown)
VH: QVQLVQSGAEVKKPGSSVKVSCKASGYSFSNYWIEWVRQAPGQGLEWIGEILPGVPTIYYNAKFKDRVTFTADKSTSTAYMELSSLRSEDTAVYYCSRDPWFAYWGQGTLVTVSA
VL: EIVLTQSPATLSVSPGERATFSCRASQSIGTSLHWFQQKPGQAPRLLIKYASQSISGIPARFSGSGSGTEFTLTISSVQSEDFAVYYCQQSNNWPFTFGGGTKLEIK
notes: also called HuC124-42-biotin; 抗CRTAM人源化抗体HuC124-42
On to B1, for which the EC50 was determined as 4.78 ng/mL.

B2: HuC110-34 (antibody, V domains shown)
VH: QVQLVQSGAEVKKPGASVKVSCKASGYTFTNNDINWVKQAPGQRLEWIGWIYPRDGSTQYNEKFRGRATITVDTSASTAYMELSSLRSEDTAVYFCARGLVDYWGQGTLVTVSS
VL: DVVMTQSPDSLAVSLGERATINCRSSQSLVHSNKNTYLHWYLQKPGQPPKLLIYKVSNRFSGVPDRFSGSGSGTDFTLTISSLQAEDVAVYYCSQSTRVPWTFGGGTKLEIK
notes: also called HuC110-34-biotin; 抗CRTAM人源化抗体HuC110-34
For B2, the EC50 came to 8.17 ng/mL.

B3: HuC94-31 (antibody, V domains shown)
VH: EVQLLESGGGLVQPGGSLRLSCAASGFTFSTSAMSWVRQAPGKGLEWVATISSGGDYTYYSDNVKGRFTISRDNSKSTLYLQMNSLRAEDTAVYYCTLGYDEADYWGQGSLLTVSS
VL: DIQMTQSPSSLSASVGDRVTITCRASQDISNYLNWYQQKPGKAPKLLIYYTSRLHSGVPSRFSGSGSGTDYTFTISSLQPEDIATYYCQQGDTFPWTFGGGTKLEIK
notes: also called HuC94-31-biotin; 抗CRTAM人源化抗体HuC94-31
In the case of B3, the EC50 is 4.68 ng/mL.
